Results published in patent US8802376B2, “Methods for identifying candidate cytotoxic antibody molecules” (Agency for Science, Technology and Research, priority 2010, dated 2014).
Blank lines part the entries; values can stand above or below the molecule they belong to.

What was measured:
[1] = test system: human embryonic stem cells (hESC); assay: inhibition of mAb84 binding to hESC by soluble trisaccharide; assay type: cell-based; conditions: trisaccharide 0.4 mM, 0.8 mM, 2 mM, 4 mM; mAb84 (25 pM, 5 μg) in 200 μl, 2×10^5 hESC
Experimental: (§1) The importance of the trisaccharide Fucα1-2Galβ1-3GlcNA in mediating the cytotoxic interaction of mAb84 on human embryonic stem cells (hESC) was investigated by assessing the ability of synthetic soluble trisaccharide Fucα1-2Galβ1-3GlcNA to (i) inhibit the binding of mAb84 to hESC and (ii) reduce the cytotoxic effect of mAb84 on hESC.
(§2) mAb84 (25 pM, 5 μg) in 200 μl volume was added to 2×10^5 hESC and preincubated for 15 minutes prior to addition of synthetic soluble trisaccharide Fucα1-2Galβ1-3GlcN (in concentrations of 0 (control), 0.4 mM, 0.8 mM, 2 mM, 4 mM).

[2] = test system: human embryonic stem cells (hESC); assay: relative viability of hESC in response to mAb84 with added trisaccharide; assay type: cell-based
Experimental: as §1, §2

PODXL from hESC (HES-3) = target: T1, PODXL from hESC (HES-3) (Homo sapiens, UniProt O00592); assay: Western blot of PODXL from hESC probed with antibodies; assay type: binding; conditions: SDS-PAGE
T1 construct: mAb 84 only detected hESC—PODXL but not expressed PODXL; endogenous in cells; host or cells: hESC (HES-3)
T1 sequence (O00592 23-558): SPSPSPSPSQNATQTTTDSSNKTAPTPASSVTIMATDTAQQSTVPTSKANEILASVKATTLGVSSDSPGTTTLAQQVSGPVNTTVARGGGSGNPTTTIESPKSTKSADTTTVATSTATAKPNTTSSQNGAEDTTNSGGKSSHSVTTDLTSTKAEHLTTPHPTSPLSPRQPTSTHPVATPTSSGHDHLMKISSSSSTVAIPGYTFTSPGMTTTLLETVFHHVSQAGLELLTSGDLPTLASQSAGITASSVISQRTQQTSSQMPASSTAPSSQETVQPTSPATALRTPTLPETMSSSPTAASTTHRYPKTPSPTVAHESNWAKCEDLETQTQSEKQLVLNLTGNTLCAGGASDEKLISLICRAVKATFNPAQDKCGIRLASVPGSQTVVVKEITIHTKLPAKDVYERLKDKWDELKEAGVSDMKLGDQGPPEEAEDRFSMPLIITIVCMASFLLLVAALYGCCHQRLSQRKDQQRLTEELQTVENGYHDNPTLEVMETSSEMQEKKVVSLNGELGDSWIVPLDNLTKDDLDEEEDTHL
From the text: (§3) The gene encoding PODXL was isolated and sequenced from hESC. The gene was cloned into vectors and expressed either unglycosylated (in vitro TnT) or in mammalian cells (HEK or COS cells which are capable of glycosylating the expressed protein).
(§4) The proteins obtained were then resolved on SDS-PAGE, Western blotted and probed with antibodies. The antibodies used were commercially available anti-PODXL antibodies (monoclonal and polyclonal) and mAb 84. […] For COS and HEK expressed PODXL, only monoclonal anti-PODXL detected both the expressed PODXL and PODXL from hESC.
In either COS or HEK cells, PODXL is glycosylated (and so has a higher MW). However the band is lower than PODXL expressed in hESC (HES-3). Also, mAb 84 only detected hESC—PODXL but not expressed PODXL. This led to the conclusion that there is a stem cell-specific modification (glycosylation) to PODXL. Without being bound by theory, it appears that when PODXL is glycosylated by stem cells the resulting glycan structure is different that of PODXL glycosylated by other cells.

hESC = hESC treated with mAb 84 prior to transplantation into SCID mice; cited from earlier work
[3] = Printed Glycan Array V4.1 (Consortium for Functional Glycomics) binding
Experimental: Buffers: • TSM=20 mM Tris-HCl, pH 7.4 150 mM NaCl, 2 mM CaCl2, 2 mM MgCl2 • TSM Wash Buffer (TSMW)=TSM Buffer+0.05% Tween-20 • TSM Binding Buffer (TSMBB)=TSM buffer+0.05% Tween 20+1% BSA
Protocol: • 1. Make working stocks of washing buffers (TSM, TSM Wash Buffer, and H2O) or collect reagents and bring to room temperature if they have been in the refrigerator. • 1.1. Buffer (A) TSM-20 mM Tris-HCl, pH 7.4 150 mM NaCl, 2 mM CaCl2, 2 mM MgCl2 • 1.2. Buffer (B) TSM Wash Buffer (TSMW)—TSM Buffer+0.05% Tween-20 • 1.3. Buffer (C) TSM Binding Buffer (TSMBB)—TSM buffer+0.05% Tween 20+1% BSA • 1.4. dH20 • 2. Prepare 100 μl of sample by diluting antibody in TSMBB or appropriate Binding Buffer based on properties of Antibody to a final concentration of 5-50 μg/ml or an appropriate concentration required for the analysis. • mAb84 antibodies were added at a concentration of 50 μg/ml. • mAb85 antibodies were added at a concentration of 50 μg/ml. • 3. Remove slide(s) from dessicator and label slide with sample name near barcode, outside of the black marks. • 4. […]
mAb84 antibodies were contacted with the glycans. […] Bound antibodies were detected using AlexaFluor-488-labeled secondary antibodies as described above. The secondary antibodies were then detected using a fluorescence scanner. Binding is presented in relative fluorescence units (RFU). […]

[4] = test system: undifferentiated human embryonic stem cells (hESC); conditions: cited from earlier work
day 8 embyroid bodies = assay: mAb 84 binding reactivity to embryoid bodies; assay type: cell-based, human
[5] = target: T2, unglycosylated PODXL (in vitro transcription and translation (TnT)) (Homo sapiens, UniProt O00592); assay: Western blot of in vitro TnT-expressed PODXL probed with antibodies; assay type: binding; conditions: SDS-PAGE
T2 construct: made in house; host or cells: in vitro transcription and translation (cell-free)
T2 sequence (O00592 23-558): T1 sequence (O00592 23-558)
From the text: as §3, §4

day 22 EB = assay: mAb 84-mediated killing on day 22 EB; assay type: cell-based, human
FGF2-starved hESC = assay: mAb 84-mediated killing on FGF2-starved hESC; assay type: cell-based, human
[6] = target: T3, PODXL on the surface of hESCs (Homo sapiens, UniProt O00592); assay: kinetics of mAb84 binding to PODXL on the surface of hESCs
T3 construct: mAb 84 only detected hESC—PODXL but not expressed PODXL; endogenous in cells; host or cells: hESC (HES-3)
T3 sequence (O00592 23-558): T1 sequence (O00592 23-558)

[7] = target: T4, PODXL over-expressed in HEK and COS cells (Homo sapiens, UniProt O00592); assay: Western blot of COS and HEK expressed PODXL probed with antibodies; assay type: binding; conditions: SDS-PAGE
T4 construct: expressed in transfected cells; host or cells: HEK or COS cells
T4 sequence (O00592 23-558): T1 sequence (O00592 23-558)
From the text: as §3, §4

IPSCs = conditions: WO/2010/033084; cited from earlier work

Molecule: CC(=O)N[C@H]1C(O)O[C@H](CO)[C@@H](O)[C@@H]1O[C@@H]1O[C@H](CO)[C@H](O)[C@H](O)[C@H]1O[C@@H]1O[C@@H](C)[C@@H](O)[C@@H](O)[C@@H]1O (stereo partly shown) [Fucα1-2Galβ1-3GlcNAc]
inhibition of mAb84 binding to hESC [1]: dose dependently inhibit | cytotoxic effect of mAb84 on hESC (relative viability) ([2]; increasing concentrations of trisaccharide 0.4 mM, 0.8 mM, 2 mM, 4 mM): reduction | cytotoxic effect of mAb84 on hESC (relative viability) ([2]; trisaccharide 2 mM): abolished | cytotoxic effect of mAb84 on hESC (relative viability) ([2]; trisaccharide 4 mM): abolished

detection of PODXL from hESC (PODXL from hESC (HES-3)): detected | relative binding (binding of mAb84 divided by binding of mAb85 to the same glycans) ([3]; 9 glycans containing Fucα1-2Galβ1-3GlcNAc, RFU values): at least 37 times | binding to glycans in the glycan array ([3]; 465 glycans, V4.1 array, Alexa488 labeled secondary antibody): selectively bind | binding reactivity compared to undifferentiated hESC (day 8 embyroid bodies): reduced | detection of unglycosylated PODXL [5]: did not detect | detection of unglycosylated PODXL ([5]; listed as mAb 84): does not bind | koff [6]: 0.0029 s⁻¹ | kon [6]: 7.1 e4 M^−1 s^−1 | detection of expressed (glycosylated) PODXL [7]: does not bind
B1: mAb84: IgM monoclonal antibody which specifically binds and kills undifferentiated human embryonic stem cells; antigen is PODXL (antibody, V domains shown)
VH: QVQLQQSGGGLVQPGGSMKLSCVASGFTFSNYWMNWVRQSPEKGLEWVAEIRLKSNNYATHYAESVKGRFTISRDDSKSSVYLQMNNLRAEDTGIYYCTGERAWGQGTTVTVSS
VL: DIELTQSPAIMSASPGEKVTMTCSASSSVNYMYWYQQKPGSSPRLLIYDTSNLASGVPVRFSGSGSGTSYSLTISRMEAEDAATYYCQQWSSYPYTFGGGTKLEIKR
modifications: Synthetic sequenceVH chain of mAb 84; Synthetic sequence VL chain of mAb 84
notes: antigen is PODXL
tumour formation (hESC): absence of tumour formation | cytotoxicity against undifferentiated hESCs ([4]; WO 2007/102787): cytotoxic | incubation time to cell death of undifferentiated hESC ([4]; undifferentiated hESC): ≤ 30 min | mAb 84-mediated killing (day 22 EB): loss | mAb 84-mediated killing (FGF2-starved hESC): decrease | cytotoxicity against IPSCs (IPSCs): cytotoxic
